Consider 30 sequences from the supplement of paper PMC10724198.

The test system of series [1] is Saccharomyces cerevisiae. Put plainly: protein stability index of tFT-peptide fusion in deletion strain of DOA10 (PSI (0-1 scale)); higher = more stable (slower turnover). How it is done:
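MPS profiling in S. cerevisiae of two library types built from selected 12-aa C-degron peptides (IN1, IN2, LN1, LN3, VN2, R1-R5, W1-W3, Atg1 and Rpa12 C-termini): saturation mutagenesis libraries and C-terminal +1 capping libraries (13 aa). Each peptide is fused to the C-terminus of a sfGFP-mCherry timer, after a GGGS linker. Cells are FACS-sorted into 8 mCherry/sfGFP bins and sequenced. PSI runs from 0 (unstable) to 1 (stable), measured once in wild type and in the das1Δ or doa10Δ background.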

Series [2] deals with Saccharomyces cerevisiae. The series is described as follows: protein stability index of tFT-peptide fusion in wild type (PSI (0-1 scale)); higher = more stable (slower turnover). The following applies: genetic background: wild type.
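Wherever protein stability index of tFT-peptide fusion in deletion strain of DOA10 is given: PSI per variant is the weighted mean of its sequencing read distribution over the sorted stability bins, counting only variants with over 10 reads summed across bins.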
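Wherever protein stability index of tFT-peptide fusion in wild type is given: PSI derived as read-weighted mean over the 8 sorting bins, only variants exceeding 10 total reads kept, mCherry placed adjacent to the peptide and sfGFP distal.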

On to RSLRVLLYLYFR, for which the results for the protein stability index with Saccharomyces cerevisiae [1] and in the series on Saccharomyces cerevisiae [2] were 0.479 and 0.235, respectively.
For the sequence RSLRVLSPLYFR, the protein stability index was determined as 0.691 in the series with Saccharomyces cerevisiae [1] and 0.308 in the series with Saccharomyces cerevisiae [2].
The corresponding values for RSLRVRLPLYFR are 0.675 and 0.187.
As for RSNRVLLPLYFR, the protein stability index was found to be 0.701 in the series on Saccharomyces cerevisiae [1] and 0.334 with Saccharomyces cerevisiae [2].
The corresponding values for RSQRVLLPLYFR are 0.705 and 0.308.
The matching figures for RSVRVLLPLYFR: 0.661 and 0.238.
The corresponding values for RVKRLDAIYFRI are 0.64 and 0.392.
As for RVTELDAIYFRI, the protein stability index is 0.64 in the series with Saccharomyces cerevisiae [1] and 0.633 in the series with Saccharomyces cerevisiae [2].
With RVTRHDAIYFRI, the figures for the protein stability index with Saccharomyces cerevisiae [1] and in the series with Saccharomyces cerevisiae [2] were 0.689 and 0.517, respectively.
The corresponding values for RVTRLDAIAFRI are 0.708 and 0.673.
The corresponding values for RVTRLDAICFRI are 0.713 and 0.656.
The corresponding values for RVTRLDAIYERI are 0.708 and 0.67.
Regarding RVTRLDAIYFHI, the protein stability index in the series on Saccharomyces cerevisiae [1] came out at 0.527; with Saccharomyces cerevisiae [2] it was 0.491.
Consider RVTRLDAIYFNI, for which the figures for the protein stability index in the series with Saccharomyces cerevisiae [1] and with Saccharomyces cerevisiae [2] were 0.703 and 0.572, respectively.
The corresponding values for RVTRLDAIYFRE are 0.725 and 0.676.
The corresponding values for RVTRLDAIYFRIR are 0.717 and 0.589.
The matching figures for RVTRLDAIYFRN: 0.676 and 0.6.
On to RVTRLDAIYFRV, for which the protein stability index in the series with Saccharomyces cerevisiae [1] turned out to be 0.63; in the series with Saccharomyces cerevisiae [2], 0.342.
In the case of RVTRLDAIYFTI, the results for the protein stability index in the series on Saccharomyces cerevisiae [1] and in the series with Saccharomyces cerevisiae [2] were 0.64 and 0.548, respectively.
The matching figures for RVTRLDAIYFWI: 0.561 and 0.523.
The corresponding values for RVTRLDAIYKRI are 0.698 and 0.667.
As for RVTRLDAIYLRI, the protein stability index was determined as 0.704 with Saccharomyces cerevisiae [1] and 0.302 with Saccharomyces cerevisiae [2].
RVTRLDANYFRI: the protein stability index in the series on Saccharomyces cerevisiae [1] was 0.716; in the series on Saccharomyces cerevisiae [2], 0.689.
The matching figures for RVTRLDAYYFRI: 0.714 and 0.609.
The matching figures for RVTRLDLIYFRI: 0.654 and 0.224.
The matching figures for RVTRLDPIYFRI: 0.707 and 0.462.
Turning to RVTRLNAIYFRI, the protein stability index was determined as 0.496 in the series with Saccharomyces cerevisiae [1] and 0.229 with Saccharomyces cerevisiae [2].
The corresponding values for RVTRPDAIYFRI are 0.706 and 0.34.
Regarding RVVRLDAIYFRI, the protein stability index was 0.65 in the series on Saccharomyces cerevisiae [1] and 0.399 with Saccharomyces cerevisiae [2].
The matching figures for YSLRVLLPLYFR: 0.632 and 0.244.
